{"source": "FireProtDB (doi:10.1006/jmbi.1995.0174)", "details": "Bos taurus, Fluorescence, whole UniProt chain shown; for denaturant m value / denaturant midpoint (higher = more stable) / unfolding free energy: 25 °C, GdnHCl, CaCl2 20 mM", "key": {"[1]": {"details": "pH 4.2, Thermal, acetate 30 mM, reversible: yes"}, "[2]": {"details": "pH 7.5, Tris-HCl 0.1 M, reversible: no"}, "[3]": {"details": "pH 8.3, Tris-HCl 0.1 M, reversible: no"}, "[4]": {"details": "pH 5.8, MES 30 mM, reversible: yes"}}, "note": "“And” between values parts separate entries of the source, which are not always exact repeats. Identical values can stand only once."}
{"protein": "Serine protease 1 wild type, P00760 (protein) MKTFIFLALLGAAVAFPVDDDDKIVGGYTCGANTVPYQVSLNSGYHFCGGSLINSQWVVSAAHCYKSGIQVRLGEDNINVVEGNEQFISASKSIVHPSYNSNTLNNDIMLIKLKSAASLNSRVASISLPTSCASAGTQCLISGWGNTKSSGTSYPDVLKCLKAPILSDSSCKSAYPGQITSNMFCAGYLEGGKDSCQGDSGGPVVCSGKLQGIVSWGSGCAQKNKPGVYTKVCNYVSWIKQTIASN", "values": [{"measurement": "Tm", "setting": "[1]", "result": "66 °C and 65 °C"}, {"measurement": "heat capacity change of unfolding", "setting": "[1]", "result": "3.09 kcal/mol/K and 2.64 kcal/mol/K"}, {"measurement": "unfolding enthalpy (van 't Hoff)", "setting": "[1]", "result": "150 kcal/mol and 164 kcal/mol"}, {"measurement": "denaturant m value", "setting": "[2]", "result": 4.22, "unit": "kcal/mol/M"}, {"measurement": "denaturant midpoint (higher = more stable)", "setting": "[2]", "result": 2.5, "unit": "M"}, {"measurement": "unfolding free energy", "setting": "[2]", "result": 10.6, "unit": "kcal/mol"}, {"measurement": "denaturant m value", "setting": "[3]", "result": 4.1, "unit": "kcal/mol/M"}, {"measurement": "denaturant midpoint (higher = more stable)", "setting": "[3]", "result": 2.27, "unit": "M"}, {"measurement": "unfolding free energy", "setting": "[3]", "result": 9.3, "unit": "kcal/mol"}]}
{"protein": "Anionic trypsin wild type, Q29463 (protein) MHPLLILAFVGAAVAFPSDDDDKIVGGYTCAENSVPYQVSLNAGYHFCGGSLINDQWVVSAAHCYQYHIQVRLGEYNIDVLEGGEQFIDASKIIRHPKYSSWTLDNDILLIKLSTPAVINARVSTLLLPSACASAGTECLISGWGNTLSSGVNYPDLLQCLVAPLLSHADCEASYPGQITNNMICAGFLEGGKDSCQGDSGGPVACNGQLQGIVSWGYGCAQKGKPGVYTKVCNYVDWIQETIAANS", "values": [{"measurement": "denaturant m value", "setting": "[4]", "result": 5.74, "unit": "kcal/mol/M"}, {"measurement": "denaturant midpoint (higher = more stable)", "setting": "[4]", "result": 2.19, "unit": "M"}, {"measurement": "unfolding free energy", "setting": "[4]", "result": 12.5, "unit": "kcal/mol"}]}
